Assay results from paper PMC7324543, “Rapid and sensitive large-scale screening of low affinity extracellular receptor protein interactions by using reaction induced inhibition of Gaussia luciferase” (Scientific Reports, 2020).

Tests used:
[1] = target: Cd200R (Rattus norvegicus) (UniProt Q9ES58); settings: cited from earlier work
[2] = target: T1, biotinylated rat Cd200R monomeric bait (rat, UniProt Q9ES58 24-239, biotin on a specific lysine of the C-terminal BirA acceptor peptide (enzymatic monobiotinylation)); test: ELISA; AVEXIS: dilution series of pentameric beta-lactamase prey on a fixed quantity of monomeric mono-biotinylated bait on a streptavidin-coated 96-well plate; 1 h at room temperature, washes in PBS / 0.1% Tween-20; nitrocefin, absorbance at 485 nm; settings: both partners purified
T1 construct: Cd200R (CD200 receptor 1), rat, ectodomain; Captured on streptavidin-coated plates by its biotin; also called Cd200R bait; source: HEK293E, transient transfection with BirA plasmid, secreted; purified; not shown: rat Cd4 domains 3+4, C-terminal, kept; BirA biotin acceptor peptide, C-terminal, kept
T1 sequence (looked up): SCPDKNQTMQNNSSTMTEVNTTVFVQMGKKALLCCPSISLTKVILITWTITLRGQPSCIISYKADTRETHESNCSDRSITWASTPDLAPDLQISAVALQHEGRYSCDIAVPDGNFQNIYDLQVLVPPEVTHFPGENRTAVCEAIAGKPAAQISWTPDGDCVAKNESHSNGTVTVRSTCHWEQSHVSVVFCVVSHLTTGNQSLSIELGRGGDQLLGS

[3] = target: T2, biotinylated rat Cd200R monomeric bait (rat, UniProt Q9ES58 24-239, biotin on a specific lysine of the C-terminal BirA acceptor peptide (enzymatic monobiotinylation)); test: ELISA; printed as log IC50 = -9.6; direct binding of pentameric prey to immobilised bait
T2 chain: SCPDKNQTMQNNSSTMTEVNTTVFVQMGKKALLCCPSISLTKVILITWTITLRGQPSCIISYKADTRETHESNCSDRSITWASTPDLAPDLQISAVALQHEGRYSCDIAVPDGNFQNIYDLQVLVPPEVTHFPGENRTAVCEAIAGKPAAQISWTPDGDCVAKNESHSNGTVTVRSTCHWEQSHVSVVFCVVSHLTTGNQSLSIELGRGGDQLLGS

[4] = target: T3, biotinylated Cd200R Gaussia luciferase pentamer (bait) (rat, UniProt Q9ES58 24-239, biotin on a specific lysine of the C-terminal BirA acceptor peptide (enzymatic biotinylation)); test: ELISA; AVEXIS: dilution series of biotinylated Gaussia luciferase pentamer immobilised as bait on a streptavidin-coated plate, probed with beta-lactamase-tagged pentameric prey; nitrocefin read-out; settings: both partners purified
T3 construct: Cd200R (CD200 receptor 1), rat, ectodomain; also called Cd200R Gaussia luciferase-tagged pentamer; source: HEK293E, transient transfection with BirA plasmid, secreted; purified; not shown: rat Cd4 domains 3+4, C-terminal, kept; five concatenated Gaussia luciferase units (AAG54095 residues K18-D185), C-terminal, kept; BirA biotin acceptor peptide, C-terminal, kept
T3 sequence (looked up): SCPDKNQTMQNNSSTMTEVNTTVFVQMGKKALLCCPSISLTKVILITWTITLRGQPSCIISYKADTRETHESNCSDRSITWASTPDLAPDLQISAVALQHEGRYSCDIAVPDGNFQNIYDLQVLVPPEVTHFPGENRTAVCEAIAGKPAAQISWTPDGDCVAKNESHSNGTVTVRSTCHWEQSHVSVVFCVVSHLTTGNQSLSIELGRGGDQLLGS

[5] = target: T1, biotinylated rat Cd200R monomeric bait; test: ELISA; AVEXIS: dilution series of pentameric nano-luciferase prey on a fixed quantity of monomeric mono-biotinylated bait on a streptavidin-coated 96-well plate; 1 h at room temperature; furimazine, luminescence; settings: both partners purified
[6] = target: T2, biotinylated rat Cd200R monomeric bait; test: ELISA; printed as log IC50 = -9.9; direct binding of pentameric prey to immobilised bait
[7] = target: T3, biotinylated Cd200R Gaussia luciferase …; test: ELISA; AVEXIS, single construct: dilution series of biotinylated Gaussia luciferase pentamer bait on a streptavidin-coated plate, inactivated with coelenterazine, probed with non-biotinylated Gaussia luciferase pentamer prey; coelenterazine, luminescence; settings: both partners purified
[8] = target: T1, biotinylated rat Cd200R monomeric bait; test: ELISA; AVEXIS: dilution series of pentameric Gaussia luciferase prey on a fixed quantity of monomeric mono-biotinylated bait on a streptavidin-coated 96-well plate; 1 h at room temperature; coelenterazine, luminescence; settings: both partners purified

## Cd200 (from UniProt P04218)
[1]
  Kd: 2500 nM

B1: rat Cd200 beta-lactamase pentameric prey (domain or fragment, UniProt P04218 31-232, looked up)
chain: QVEVVTQDERKLLHTTASLRCSLKTTQEPLIVTWQKKKAVGPENMVTYSKAHGVVIQPTYKDRINITELGLLNTSITFWNTTLDDEGCYMCLFNMFGSGKVSGTACLTLYVQPIVHLHYNYFEDHLNITCSATARPAPAISWKGTGSGIENSTESHSHSNGTTSVTSILRVKDPKTQVGKEVICQVLYLGNVIDYKQSLDKG
notes: Cd200 (OX-2 membrane glycoprotein), rat, extracellular region (ectodomain); Original AVEXIS prey format; Pentamer through COMP; also called Cd200 beta-lactamase tagged prey; beta-lactamase-tagged Cd200 pentamer; source: HEK293E, transient transfection, secreted; not shown: rat Cd4 domains 3+4, C-terminal, kept; beta-lactamase (WP_125075679 residues H19-W282), C-terminal, kept
[2]
  binding result: binds
[3]
  IC50: 0.25 nM
[4]
  binding result: binds

B2: rat Cd200 nano-luciferase pentameric prey (domain or fragment, UniProt P04218 31-232, looked up)
chain: QVEVVTQDERKLLHTTASLRCSLKTTQEPLIVTWQKKKAVGPENMVTYSKAHGVVIQPTYKDRINITELGLLNTSITFWNTTLDDEGCYMCLFNMFGSGKVSGTACLTLYVQPIVHLHYNYFEDHLNITCSATARPAPAISWKGTGSGIENSTESHSHSNGTTSVTSILRVKDPKTQVGKEVICQVLYLGNVIDYKQSLDKG
notes: Cd200 (OX-2 membrane glycoprotein), rat, extracellular region (ectodomain); also called NanoLuc prey; Nano luciferase prey; source: HEK293E, transient transfection, secreted; not shown: rat Cd4 domains 3+4, C-terminal, kept; five concatenated nano-luciferase units (AHH41346 residues V2-T171), C-terminal, kept
[5]
  binding result: binds
[6]
  IC50: 0.126 nM

B3: rat Cd200 Gaussia luciferase pentameric prey (domain or fragment, UniProt P04218 31-232, looked up)
chain: QVEVVTQDERKLLHTTASLRCSLKTTQEPLIVTWQKKKAVGPENMVTYSKAHGVVIQPTYKDRINITELGLLNTSITFWNTTLDDEGCYMCLFNMFGSGKVSGTACLTLYVQPIVHLHYNYFEDHLNITCSATARPAPAISWKGTGSGIENSTESHSHSNGTTSVTSILRVKDPKTQVGKEVICQVLYLGNVIDYKQSLDKG
notes: Cd200 (OX-2 membrane glycoprotein), rat, extracellular region (ectodomain); also called Cd200 Gaussia luciferase fusion pentamer; GLuc prey; source: HEK293E, transient transfection, secreted; not shown: rat Cd4 domains 3+4, C-terminal, kept; five concatenated Gaussia luciferase units (AAG54095 residues K18-D185), C-terminal, kept
[6]
  IC50: 0.126 nM
[7]
  binding result: binds
[8]
  binding result: binds
